Patent US7732183B2, “Method for refolding enzymes” (Elan Pharmaceuticals, Inc., priority 2001, dated 2010)
Values joined by “and” are separate entries in the source; they are usually repeats but may differ in a detail not shown here. Equal entries are not always repeated.

Key:
Type in all cases: biochemical
[1] = test system: substrate SEISY↓EVEFRWKK [SEQ ID NO:9] or GLTNIKTEEISEISY↓EVEFRWKK [SEQ ID NO:10]; assay: BACE activity assay: HPLC with fluorescence detection of peptide substrate cleavage; settings: for Activity %: relative to recombinant BACE expressed in CHO cells (=100), E. coli enzymes refolded as in Example 4 and purified
Procedure: (§1) Peptide substrates SEISY↓EVEFRWKK [SEQ ID NO: 9] and GLTNIKTEEISEISY↓EVEFRWKK [SEQ ID NO: 10] were synthesized by solid-phase technology (arrows indicating cleavage site). The assay mixture contained in a volume of 200 μl, 0.1 M Sodium acetate, pH 5.0, 0.5-20 nM BACE and 25 μM substrate SEISY↓EVEFRWKK [SEQ ID NO:9] or GLTNIKTEEISEISY↓EVEFRWKK [SEQ ID NO:10]. The reaction mixture was incubated for 2 hours at 37° C.; reactions were stopped with 100 μl of 4% TFA in H2O. A 50 μl portion was injected into an Agilent 1100 Series HPLC equipped with an Alltech Rocket™ column (7 mm i.d.×53 mm length, C18, 3 μm) pre-equilibrated with 88% reagent A (0.1% TFA in water), 12% reagent B (0.1% TFA in acetonitrile). The flow rate over this column was 3 ml per minute. The products (including uncleaved substrate) were eluted from the column with the following linear gradients:
(§2) The Agilent 1100 Series HPLC is equipped with a fluorescence detector that allows detection of the substrate disappearance and EVEFRWKK [SEQ ID NO:29] product formation. Activity was expressed as Fluorescence peak area generated by the liberation of a fluorescent (Tryptophan fluorescence) product upon cleavage of substrate. Fluorescence detection is monitored at 348 nM upon excitation at 280 nm.

[2] = test system: SEISY-↓-EVEFRWKK [SEQ ID NO: 9]; assay: Kinetic comparison of CHO and E. coli BACE (Vmax, kcat, Km); settings: substrate SEQ ID NO: 9, 1 to 300 μM; pH 5.5, 50 mM NaCl, 37° C., 1 h, enzyme 1 nM
[3] = molecular target: T1, EIDL-↓-MVLDWHDR [SEQ ID NO: 13] (Homo sapiens, UniProt P56817); assay: as above; settings: substrate SEQ ID NO: 13, 1 to 300 μM; pH 5.5, 50 mM NaCl, 37° C., 1 h, enzyme 1 nM
T1 construct: made in house; host or cells: CHO cells, purified from conditioned media

[4] = test system: GLTNIKTEEISEISY-↓-EVEFRWKK [SEQ ID NO: 10]; assay: as above; settings: substrate SEQ ID NO: 10, 1 to 300 μM; pH 5.5, 50 mM NaCl, 37° C., 1 h, enzyme 1 nM
[5] = molecular target: T2, substrate SEISY↓EVEFRWKK [SEQ ID NO:9] or GLTNIKTEEISEISY↓EVEFRWKK [SEQ ID NO:10] (Homo sapiens, UniProt P56817); assay: BACE activity assay: HPLC with fluorescence detection of peptide substrate cleavage; settings: relative to CHO BACE, Example 5 optimized refolding method
T2 construct: made in house; control enzyme from CHO cells
Procedure: as §1, §2

B1: PcDNA3.1Asp2LΔTM(His)6 + HIV Pr: CHO-expressed BACE cleaved with HIV-1 protease, SEQ ID NO:32 (protein, listed as Homo sapiens)
chain: VEMVDNLRGKSGQGYYVEMTVGSPPQTLNILVDTGSSNFAVGAAPHPFLHRYYQRQLSSTYRDLRKGVYVPYTQGKWEGELGTDLVSIPHGPNVTVRANIAAITESDKFFINGSNWEGILGLAYAEIARPDDSLEPFFDSLVKQTHVPNLFSLQLCGAGFPLNQSEVLASVGGSMIIGGIDHSLYTGSLWYTPIRREWYYEVIIVRVEINGQDLKMDCKEYNYDKSIVDSGTTNLRLPKKVFEAAVKSIKAASSTEKFPDGFWLGEQLVCWQAGTTPWNIFPVISLYLMGEVTNQSFRITILPQQYLRPVEDVATSQDDCYKFAISQSSTGTVMGAVIMEGFYVVFDRARKRIGFAVSACHVHDEFRTAAVEGPFVTLDMEDCGYNIPQTDESHHHHHH
modifications: His6 tag; HIV Protease treated BACE Asp2-2L-TM-His6
B1 was tested, and the “more enzymatic activity than untreated BACE” value ([1]; BACE expressed in CHO cells, HIV-1 protease treated and purified) was 10-20% and the Activity % [1] was 120%.

B2: PcDNA3.1Asp2LΔTM(His)6: Recombinant human BACE lacking transmembrane domain, His6 tag, expressed in CHO cells (control), SEQ ID NO:23 (protein, listed as Homo sapiens)
chain: MAQALPWLLLWMGAGVLPAHGTQHGIRLPLRSGLGGAPLGLRLPRETDEEPEEPGRRGSFVEMVDNLRGKSGQGYYVEMTVGSPPQTLNILVDTGSSNFAVGAAPHPFLHRYYQRQLSSTYRDLRKGVYVPYTQGKWEGELGTDLVSIPHGPNVTVRANIAAITESDKFFINGSNWEGILGLAYAEIARPDDSLEPFFDSLVKQTHVPNLFSLQLCGAGFPLNQSEVLASVGGSMIIGGIDHSLYTGSLWYTPIRREWYYEVIIVRVEINGQDLKMDCKEYNYDKSIVDSGTTNLRLPKKVFEAAVKSIKAASSTEKFPDGFWLGEQLVCWQAGTTPWNIFPVISLYLMGEVTNQSFRITILPQQYLRPVEDVATSQDDCYKFAISQSSTGTVMGAVIMEGFYVVFDRARKRIGFAVSACHVHDEFRTAAVEGPFVTLDMEDCGYNIPQTDESHHHHHH
modifications: His6 tag; Human soluble BACE with 6-His tag
B2 gave an Activity % [1] of 100%, a Km [2] of 52 µM and a Vmax [2] of 0.294 µmol/min/mg. For the same molecule, the kcat [2] was 0.233 s⁻¹, the Km [3] was 12 µM and the Vmax [3] was 0.0196 µmol/min/mg. It also gave a kcat [3] of 0.0155 s⁻¹, a Km [4] of 4.9 µM and a Vmax [4] of 0.435 µmol/min/mg. The kcat [4] was 0.345 s⁻¹.

B3: pQE70-BACE: (M)R36 to S432 BACE-RS(His)6 lacking prosequence, SEQ ID NO:3, expressed in E. coli and refolded (protein, listed as Homo sapiens)
chain: MRGSFVEMVDNLRGKSGQGYYVEMTVGSPPQTLNILVDTGSSNFAVGAAPHPFLHRYYQRQLSSTYRDLRKGVYVPYTQGKWEGELGTDLVSIPHGPNVTVRANIAAITESDKFFINGSNWEGILGLAYAEIARPDDSLEPFFDSLVKQTHVPNLFSLQLCGAGFPLNQSEVLASVGGSMIIGGIDHSLYTGSLWYTPIRREWYYEVIIVRVEINGQDLKMDCKEYNYDKSIVDSGTTNLRLPKKVFEAAVKSIKAASSTEKFPDGFWLGEQLVCWQAGTTPWNIFPVISLYLMGEVTNQSFRITILPQQYLRPVEDVATSQDDCYKFAISQSSTGTVMGAVIMEGFYVVFDRARKRIGFAVSACHVHDEFRTAAVEGPFVTLDMEDCGYNIPQTDESRSHHHHHH
modifications: His6 tag
Molecule B3 has an Activity % ([5]; first elution from affinity column) of 171%, an Activity % ([5]; second elution from affinity column) of 125% and a Km [2] of 55.5 µM. The Vmax [2] was 0.345 µmol/min/mg, the kcat [2] was 0.273 s⁻¹ and the Km [4] was 5.4 µM. The Vmax [4] was 0.400 µmol/min/mg and the kcat [4] was 0.317 s⁻¹.

B4: pET11a-BACE: T7 tag-GSM-BACE (A-8 to S432), SEQ ID NO:5, expressed in E. coli and refolded (protein, listed as Homo sapiens)
chain: MASMTGGQQMGRGSMAGVLPAHGTQHGIRLPLRSGLGGAPLGLRLPRETDEEPEEPGRRGSFVEMVDNLRGKSGQGYYVEMTVGSPPQTLNILVDTGSSNFAVGAAPHPFLHRYYQRQLSSTYRDLRKGVYVPYTQGKWEGELGTDLVSIPHGPNVTVRANIAAITESDKFFINGSNWEGILGLAYAEIARPDDSLEPFFDSLVKQTHVPNLFSLQLCGAGFPLNQSEVLASVGGSMIIGGIDHSLYTGSLWYTPIRREWYYEVIIVRVEINGQDLKMDCKEYNYDKSIVDSGTTNLRLPKKVFEAAVKSIKAASSTEKFPDGFWLGEQLVCWQAGTTPWNIFPVISLYLMGEVTNQSFRITILPQQYLRPVEDVATSQDDCYKFAISQSSTGTVMGAVIMEGFYVVFDRARKRIGFAVSACHVHDEFRTAAVEGPFVTLDMEDCGYNIPQTDES
modifications: T7 tag
B4 was tested, and the Activity % [1] was 47%, the Activity % ([1]; listed as pET11a BACE) was “about 47%” and the Activity % ([1]; listed as recombinant BACE) was 28%.

B5: pET11a-BACE + HIV Pr: V40 to S432 BACE fragment, SEQ ID NO:31, obtained by HIV-1 protease treatment of pET11a-BACE (protein, listed as Homo sapiens)
chain: VEMVDNLRGKSGQGYYVEMTVGSPPQTLNILVDTGSSNFAVGAAPHPFLHRYYQRQLSSTYRDLRKGVYVPYTQGKWEGELGTDLVSIPHGPNVTVRANIAAITESDKFFINGSNWEGILGLAYAEIARPDDSLEPFFDSLVKQTHVPNLFSLQLCGAGFPLNQSEVLASVGGSMIIGGIDHSLYTGSLWYTPIRREWYYEVIIVRVEINGQDLKMDCKEYNYDKSIVDSGTTNLRLPKKVFEAAVKSIKAASSTEKFPDGFWLGEQLVCWQAGTTPWNIFPVISLYLMGEVTNQSFRITILPQQYLRPVEDVATSQDDCYKFAISQSSTGTVMGAVIMEGFYVVFDRARKRIGFAVSACHVHDEFRTAAVEGPFVTLDMEDCGYNIPQTDES
modifications: BACE V40- S432 fragment
In the case of B5, the “increase in enzyme activity after HIV-1 protease treatment versus untreated enzyme” value ([1]; HIV-1 protease cleavage at F39-V40, then purification) is reported as “about 5 fold”, the Activity % [1] is reported as 248% and the Activity % ([1]; listed as V^40 . . . S^432) is reported as 248% and 222%.

B6: pQE80L-BACE + HIV Pr: V40 to S432 BACE fragment, SEQ ID NO:31, obtained by HIV-1 protease treatment of pQE80L-BACE (protein, listed as Homo sapiens)
chain: B5 chain
modifications: BACE V40- S432 fragment
With B6 the Activity % [1] was 222%.
